Measurements as given in patent publication US20230406912A1, “HUMANISED ANTIBODIES AGAINST PATHOGENIC FUNGI” (priority 2020, published 2023).

Key:
[1] = test system: C. auris; conditions: different C. auris strains, literature; cited from earlier work
[2] = test system: C. auris; test: Time-kill curve, drug alone and combined with hmAb 2G8; assay type: cell-based
Source text: To support and deepen the data coming from MIC assays, a time-kill curve was elaborated to evaluate how the hmAb 2G8 combined with caspofungin or amphotericin B could improve their basal activity on C. auris.

[3] = test system: C. auris; test: EUCAST antifungal MIC assay, drug alone and combined with hmAb 2G8; assay type: cell-based; conditions: Candidozyma auris; 48 hours, drug alone; read-out: MIC50
Protocol: To evaluate the susceptibility of C. auris to caspofungin, amphotericin B and their combination with hmAb 2G8, we followed the EUCAST antifungal MIC method (EUCAST E.DEF. 7.3). Antifungal drugs were purchased from Sigma-Aldrich.
The caspofungin and amphotericin B range concentrations analysed were reported in EUCAST document. Those concentrations were tested alone and in combination with 0.25, 2.5, 25 and 250 μg/ml of humanised antibody.
The plates microdilution and the yeast inoculum were prepared as reported in EUCAST document. The wells with 100 μl of 2X final antifungal drugs concentration in RPMI 2% G medium were inoculated with 100 μl (1-5×10^5 CFU/ml) of yeast suspension of C. auris. The monoclonal antibody was added to the samples of yeast suspension to test the combination drug-antibody. The plates were incubated at 37° C. for 24 and 48 hours and read after incubation at 405 nm. The assays were performed in triplicate.
As reported in EUCAST, echinocandins' MIC50 is the lowest drug concentration giving inhibition of≥50% of that of the drug-free control (dotted line). For amphotericin B, MIC50 is the same as for echinocandins while MIC90 is considered as the lowest concentration giving a growth inhibition of≥90% of that of the drug-free control (dotted bold line). […] At 48 hours (D), amphotericin B alone has its MIC50 and 90 at 1 μg/ml.

[4] = ELISA assay on laminarin-coated plates; assay type: binding; conditions: for Abs 405 nm: ELISA of supernatants of humanised mAbs; for activity in ELISA test: recombinant antibody, laminarin-coated plates
Protocol: The activity of the purified antibody was then tested by ELISA assay. 96-well plates were coated with 50 μg/ml Laminarin (Sigma-Aldrich, L9634) in 0.05 M carbonate buffer pH 9.6 overnight at 4° C. Nonspecific interactions were blocked with 100 μL/well blocking solution, 3% (w/v) BSA in PBS-Tween 20 (8 g/L NaCl, 0.2 g/L KH2PO4, 2.9 g/L Na2HPO4·12 H2O, 0.2 g/L KCI, 0.05% (v/v) Tween 20, pH 7.4) at 37° C. for 1 h. The plates were then incubated with decreasing concentrations of hmAb 2G8_first approach (comparative purpose) (from 3.12 μg/ml to 0.003 μg/ml, each concentration was tested in triplicate) in blocking solution for 2 h at 37° C. At the same temperature and for the same time, 100 μL Goat anti-human-HRP diluted 1:1000 in blocking solution was poured in each well. After every single passage the plates were washed 5 times with PBS-Tween 20. To reveal the binding, 100 μl of 5 mg-ABTS tablet (Roche Diagnostics) dissolved in 12 ml of sodium citrate (0.05 M, pH 3) and supplemented with 1:1000 dilution hydrogen peroxide (Carlo Erba) was added and after 15, 30, 45 and 60 min the absorbance at 405 nm was measured. For the whole measuring time the plates were left in the dark. IC50 analysis of ELISA test was performed with Prism. The TEST was performed in triplicate.
The surnatants collected from the obtained humanised mAb were tested in ELISA test.
Four supernatants from hmAb according to the invention (H5/K3; H5/K1; H5/K7; H5/K5) were purified to confirm the data. 8 scalar dilutions, starting from 5 μg/ml, were tested.
The purified humanised mAb 2G8 H5/K1 was then tested in an ELISA assay using laminarin as a target.

| Molecule | Abs 405 nm [4] | activity in ELISA test [4] | also measured |
| --- | --- | --- | --- |
| C[C@@H](c1ncncc1F)[C@](O)(Cn1cncn1)c1ccc(F)cc1F [voriconazole] |  |  | MIC [1]: about 16 mg/L |
| CC[C@H](C)C[C@H](C)CCCCCCCCC(=O)N[C@H]1C[C@@H](O)[C@@H](NCCN)NC(=O)[C@@H]2[C@@H](O)CCN2C(=O)[C@H]([C@H](O)CCN)NC(=O)[C@H]([C@H](O)[C@@H](O)c2ccc(O)cc2)NC(=O)[C@@H]2C[C@@H](O)CN2C(=O)[C@H]([C@@H](C)O)NC1=O [caspofungin] |  |  | fungistatic effect, log (time-kill curve) ([2]; CAS 0.125 μg/ml, 24 h): −1.88; fungistatic effect, log (time-kill curve) ([2]; CAS 0.125 μg/ml, 48 h): −2.10; fungistatic effect, log (time-kill curve) ([2]; CAS 0.25 μg/ml, 24 h, combination with 250 μg/ml hmAb 2G8 H5K1): −1.11; fungistatic effect, log (time-kill curve) ([2]; CAS 0.25 μg/ml, 48 h, combination with 250 μg/ml hmAb 2G8 H5K1): −1.71; MIC50 [3]: 0.25 µg/mL |
| H1 K1: humanised mAb, first approach CDR-grafting; VH H1 (SEQ ID NO: 16), VL K1 (SEQ ID NO: 15) (antibody, V domains shown, VH-H1; VL-K1) VH: QVQLVQSGAEVKKPGASVKVSCKASGYTLSSYWMHWVRQAPGQGLEWMGIILPGSGSTSYAQKFQGRVTMTRDTSTSTVYMELSSLRSEDTAVYYCAREGWYFDVWGAGTTVTVSS VL: DVVMTQSPLSLPVTLGQPASISCRSSQSLLYSNGNTHLNWFQQRPGQSPRRLIYLVSNRDSGVPDRFSGSGSGTDFTLKISRVEAEDVGVYYCVQGTHFPYTFGGGTKLEIK | 0.35 | not active |  |
| H3 K1: humanised mAb combining heavy chain H3 (SEQ ID NO: 20) and light chain K1 (SEQ ID NO: 15) (antibody, V domains shown, VH-H3; VL-K1) VH: QVQLVQSGAEVKKPGASVKVSCKASGYTLSSYWIHWVRQAPGQGLEWIGWILPGSGSTNYAQKFQGKATITADKSTSTAYMELSSLRSEDTAVYYCAREGWYFDVWGQGTLVTVSS VL: DVVMTQSPLSLPVTLGQPASISCRSSQSLLYSNGNTHLNWFQQRPGQSPRRLIYLVSNRDSGVPDRFSGSGSGTDFTLKISRVEAEDVGVYYCVQGTHFPYTFGGGTKLEIK | 0.4 |  |  |
| H6 K1: humanised mAb combining heavy chain H6 (SEQ ID NO: 24) and light chain K1 (SEQ ID NO: 15) (antibody, V domains shown, VH-H6; VL-K1) VH: QVQLQQSGAELKKPGASVKISCKASGYTLSSYWIHWVRQRPGQGLEWIGEILPGSGSTNYNEKFKGRATFTADTSTNTAYMELSSLTSEDSAVYYCAREGWYFDVWGQGTTVTVSS VL: DVVMTQSPLSLPVTLGQPASISCRSSQSLLYSNGNTHLNWFQQRPGQSPRRLIYLVSNRDSGVPDRFSGSGSGTDFTLKISRVEAEDVGVYYCVQGTHFPYTFGGGTKLEIK | 0.27 |  |  |
| H5 K7: humanised mAb combining heavy chain H5 (SEQ ID NO: 22) and light chain K7 (SEQ ID NO: 25) (antibody, V domains shown, VH-H5; VL-K7) VH: QVQLQQSGAELKKPGASVKISCKASGYTLSSYWLEWVRQRPGQGLEWIGEILPGSGSTNYNEKFKGRATFTADTSTNTAYMELSSLTSEDSAVYYCAREGWYFDVWGQGTTVTVSS VL: DIVMTQSPLSLPVTLGQPASISCKSSQSLLYSNGNTHLNWYLQRPGQSPKRLIYLVSKLDSGVPDRFSGSGSGTDFTLKISRVEAEDVGVYYCVQGTHFPYTFGGGTKLEIK | 0.82 |  |  |
| H5 K5: humanised mAb, third approach (Kabat); VH H5 (SEQ ID NO: 22), VL K5 (SEQ ID NO: 21) (antibody, V domains shown, VH-H5; VL-K5) VH: QVQLQQSGAELKKPGASVKISCKASGYTLSSYWLEWVRQRPGQGLEWIGEILPGSGSTNYNEKFKGRATFTADTSTNTAYMELSSLTSEDSAVYYCAREGWYFDVWGQGTTVTVSS VL: DIVMTQSPLSLPVTLGQPASISCKSSQSLLYSNGNTHLNWYQQRPGQSPRRLIYLVSKLDSGVPDRFSGSGSGTDFTLKISRVEAEDVGVYYCVQGTHFPYTFGGGTKLEIK | 1.61 | showed some activity | activity / affinity compared with murine 2G8 ([4]; ELISA): lower than the activity observed for the murine 2G8 |
| H3/K3: humanised recombinant Ab, second approach; VH H3 (SEQ ID NO: 20), VL K3 (SEQ ID NO: 19) (antibody, V domains shown, VH-H3; VL-K3) VH: QVQLVQSGAEVKKPGASVKVSCKASGYTLSSYWIHWVRQAPGQGLEWIGWILPGSGSTNYAQKFQGKATITADKSTSTAYMELSSLRSEDTAVYYCAREGWYFDVWGQGTLVTVSS VL: DIVMTQTPLSLSVTPGQPASISCKSSQSLLYSNGNTHLNWYLQRPGQSPQLLIYLVSNRASGVPDRFTGSGSGTDFTLKISRVEAEDVGVYYCVQGTHFPYTFGGGTKVEIK |  | not active |  |
| H5 K3: humanised mAb combining heavy chain H5 (SEQ ID NO: 22) and light chain K3 (SEQ ID NO: 19) (antibody, V domains shown, VH-H5; VL-K3) VH: QVQLQQSGAELKKPGASVKISCKASGYTLSSYWLEWVRQRPGQGLEWIGEILPGSGSTNYNEKFKGRATFTADTSTNTAYMELSSLTSEDSAVYYCAREGWYFDVWGQGTTVTVSS VL: DIVMTQTPLSLSVTPGQPASISCKSSQSLLYSNGNTHLNWYLQRPGQSPQLLIYLVSNRASGVPDRFTGSGSGTDFTLKISRVEAEDVGVYYCVQGTHFPYTFGGGTKVEIK | 2.47 |  |  |
